This assay deals with cytoplasmic dynein-1 heavy chain (bovine) (bovine). The experiment in a line: negative stain EM.

In PMC4385409 one finds stoichiometry N data, which are given here for one substance.

“cytoplasmic dynein-1 heavy chain (bovine) (natural protein)”: the stoichiometry N (as a rule, a count of units in the complex or per binding partner) came to 2.
